For series [1], the target named is MOD-5000/TF complex (UniProt P08709). Nature of the series: cell-based or functional assay.
Series [2] concerns the target MOD-5014/TF complex (UniProt P13726). The experiment in a line: cell-based or functional assay.
For series [3], the system named is MOD-5014 (activated CTP-modified human Factor VII, FVIIa-CTP3).
Series [4] deals with MOD-5000 (commercial recombinant hFVIIa, NovoSeven) (UniProt P08709).
Series [5] concerns the target MOD-5000/TF complex (UniProt P08709).
For series [6], the target named is MOD-5014/TF complex (UniProt P13726).
The target of series [7] is T1, Tissue factor (TF), P13726.
T1 chain: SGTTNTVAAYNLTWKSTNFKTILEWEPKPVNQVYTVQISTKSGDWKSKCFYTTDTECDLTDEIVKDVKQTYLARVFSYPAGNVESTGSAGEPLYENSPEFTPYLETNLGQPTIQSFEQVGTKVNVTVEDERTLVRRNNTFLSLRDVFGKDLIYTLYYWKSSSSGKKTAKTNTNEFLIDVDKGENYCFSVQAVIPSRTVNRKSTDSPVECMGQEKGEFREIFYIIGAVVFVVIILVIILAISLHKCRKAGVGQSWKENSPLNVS

Series [8] deals with T2, MOD-5014 (activated CTP-modified human Factor VII, FVIIa-CTP3) (human, UniProt P08709 61-212, O-glycans on the CTP serines, sialylated; N-glycans (positions not given); gamma-carboxyglutamic acid (Gla) residues (highly gamma carboxylated; positions not given)).
T2 construct: also called FVIIa-CTP-CTP-CTP; FVIIa-3*CTP
T2 sequence (light): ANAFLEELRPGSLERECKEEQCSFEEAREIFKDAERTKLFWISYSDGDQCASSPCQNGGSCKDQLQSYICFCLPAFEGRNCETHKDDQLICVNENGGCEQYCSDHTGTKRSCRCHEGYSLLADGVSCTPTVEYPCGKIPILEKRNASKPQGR
T2 sequence (heavy): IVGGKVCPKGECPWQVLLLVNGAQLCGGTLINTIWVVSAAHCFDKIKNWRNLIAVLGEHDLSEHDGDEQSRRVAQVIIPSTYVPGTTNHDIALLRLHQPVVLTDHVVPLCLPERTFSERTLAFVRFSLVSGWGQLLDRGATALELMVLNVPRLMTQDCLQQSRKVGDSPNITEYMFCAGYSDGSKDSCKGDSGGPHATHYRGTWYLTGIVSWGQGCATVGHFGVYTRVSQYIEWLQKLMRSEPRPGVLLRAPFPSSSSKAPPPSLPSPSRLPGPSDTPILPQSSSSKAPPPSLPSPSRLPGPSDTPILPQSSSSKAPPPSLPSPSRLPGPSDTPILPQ
The experiment in a line: titration of FVIIa (0-2 nM) on fixed TF (10 pM), read out as rate of FX activation (Pefachrome FXa). From the text: Cleavage of synthetic substrate is converted to FXa concentration by a standard curve.

Broadly, the Kd is the constant that tells how readily two partners part at equilibrium. Low values mean a tighter complex, high ones a looser complex.

Take “anti-thrombin (AT) (from UniProt P01008 33-464)”: the k, rate constant of loss of FVIIa/TF activity with AT and heparin with MOD-5000/TF complex [1] was 0.354 min⁻¹. In the series with MOD-5014/TF complex [2], this molecule came in with a k, rate constant of loss of FVIIa/TF activity with AT and heparin of 0.217 min⁻¹; a rate of inhibition by AT relative to MOD-5000 of 62%.

In the case of “tissue factor pathway inhibitor (TFPI) (from UniProt P10646 29-304)”, the sensitivity to TFPI inhibition of FXa generation relative to MOD-5000 with MOD-5014/TF complex [2] is 124%.

Consider Factor X (FX), for which, in series [3], the Km of FX activation by lipid-bound FVIIa without TF is 848 nM, the Vmax of FX activation by lipid-bound FVIIa without TF was 0.115 nM FXa/min and the “rate of FX activation on a lipid surface in the absence of TF relative to MOD-5000” value is “The rate of FX activation on a lipid surface in the absence of TF is lower for MOD-5014 (45%) relative to MOD-5000”. Further, in series [4], the Km of FX activation by lipid-bound FVIIa without TF is 878 nM and the Vmax of FX activation by lipid-bound FVIIa without TF came to 0.253 nM FXa/min. For the same molecule, in the series with MOD-5000/TF complex [5], the Km of FX activation by FVIIa/TF was 140 nM and the Vmax of FX activation by FVIIa/TF as a function of FX concentration amounted to 1.78 nM FXa/min. Further, in the series with MOD-5014/TF complex [6], the Km of FX activation by FVIIa/TF turned out to be 120 nM; the Vmax of FX activation by FVIIa/TF as a function of FX concentration stood at 1.64 nM FXa/min; the “turnover of FX relative to MOD-5000” value is listed as “When bound to TF, MOD-5014 had a slightly reduced turnover of FX (92%) relative to MOD-5000”.

B1: MOD-5014 (activated CTP-modified human Factor VII, FVIIa-CTP3) (protein)
chain 1: ANAFLEELRPGSLERECKEEQCSFEEAREIFKDAERTKLFWISYSDGDQCASSPCQNGGSCKDQLQSYICFCLPAFEGRNCETHKDDQLICVNENGGCEQYCSDHTGTKRSCRCHEGYSLLADGVSCTPTVEYPCGKIPILEKRNASKPQGR
chain 2: IVGGKVCPKGECPWQVLLLVNGAQLCGGTLINTIWVVSAAHCFDKIKNWRNLIAVLGEHDLSEHDGDEQSRRVAQVIIPSTYVPGTTNHDIALLRLHQPVVLTDHVVPLCLPERTFSERTLAFVRFSLVSGWGQLLDRGATALELMVLNVPRLMTQDCLQQSRKVGDSPNITEYMFCAGYSDGSKDSCKGDSGGPHATHYRGTWYLTGIVSWGQGCATVGHFGVYTRVSQYIEWLQKLMRSEPRPGVLLRAPFPSSSSKAPPPSLPSPSRLPGPSDTPILPQSSSSKAPPPSLPSPSRLPGPSDTPILPQSSSSKAPPPSLPSPSRLPGPSDTPILPQ
For B1, in series [7], the Vmax of FX activation at saturation of TF with FVIIa turned out to be 1.3 nM FXa/min and the k2, rate of Pefachrome FVIIa substrate cleavage by the VIIa/TF complex (mol pNA/min/mol VIIa/TF) came out at 357.

B2: Tissue factor (TF) (receptor, UniProt P13726 33-295, looked up)
chain: SGTTNTVAAYNLTWKSTNFKTILEWEPKPVNQVYTVQISTKSGDWKSKCFYTTDTECDLTDEIVKDVKQTYLARVFSYPAGNVESTGSAGEPLYENSPEFTPYLETNLGQPTIQSFEQVGTKVNVTVEDERTLVRRNNTFLSLRDVFGKDLIYTLYYWKSSSSGKKTAKTNTNEFLIDVDKGENYCFSVQAVIPSRTVNRKSTDSPVECMGQEKGEFREIFYIIGAVVFVVIILVIILAISLHKCRKAGVGQSWKENSPLNVS
B2 came in with a Kd in series [8] of 3 pM.
